These are literature values, as cited in patent US20110015134A1, “Method of treatment for early stage cancer” (priority 2007, published 2011).

In data set [1] the test system is wound healing associated tumor growth. As to conditions: reported in the literature.
The conditions of data set [2]: in vivo.
For data set [3] the following is noted: at any level, at any concentration.
For data set [4] the following is noted: in vivo. This is another data set of the same source.

`COc1ccc2c(c1)c(CC(=O)O)c(C)n2C(=O)c1ccc(Cl)cc1` [Indomethacin]: the “prevention of wound healing associated / surgery induced tumor growth” value in data set [1] is “effective in preventing wound healing associated tumor growth”.
For the molecule `O=S1(=O)CCN(CN2CCS(=O)(=O)NC2)CN1` [Taurolidine], the “prevention of wound healing associated / surgery induced tumor growth” value in data set [1] was “can prevent surgery induced tumor growth”.
Take “Avastin: angiogenesis inhibitor that inhibits VEGF”: the dose limiting toxicity entry in data set [2] is “some dose limiting toxicity mainly hypertension”.
With Endostatin, the toxicity result in data set [3] is reported as “never been shown to exhibit toxicity at any level at any concentration”. Further, the half-life result in data set [4] was “half-life is short”.
